± gives the standard deviation of the averaged measurements.
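Note: PSI is a weighted mean of sequencing reads over stability bins, variants kept only with over 10 reads, mCherry proximal and sfGFP distal, peptide attached via GGGS linker.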

For the data set, the system named is Saccharomyces cerevisiae. Nature of the data set: protein stability index of tFT-peptide fusion (C-terminal peptide) (PSI (0-1 scale)); higher = more stable (slower turnover). As to conditions: genetic background: wild type; temperature: 30 C.
Turning to LGIGTWGHRGDD, the protein stability index was found to be 0.712 ± 0.015.
Sequence LGLSTLLVPHTR yielded a protein stability index of 0.743 ± 0.028.
Then LGNPVLRFILEK, with 0.597 ± 0.094; and LGPLILDGATDC, with 0.688 ± 0.11; and LGQWGGGLSGSV, with 0.685 ± 0.033.
To LGRGEVWYIDRG belongs 0.696 ± 0.017; to LGRRHAYGSALS, 0.708 ± 0.12.
To LGSAIQGFLILT belongs 0.5996 ± 0.0017; to LGSSGCVLVGWG, 0.683 ± 0.0084.
Regarding LGSSPPPTLPPP, the protein stability index was determined as 0.701 ± 0.031.
Then LGVGVGGRGVRG, with 0.745 ± 0.0098.
To LGVLGGGRRFGV belongs 0.715 ± 0.019; to LGVRSGGSWRAG, 0.792 ± 0.064; to LGVVCLGADLLR, 0.693 ± 0.026.
To LHAPFPLPPPPP belongs 0.647 ± 0.026; to LHCLGFWRVMYG, 0.6538 ± 0.0011; to LHCPRICYSPHL, 0.715 ± 0.059.
As for LHEHHSFCFRLL, the protein stability index turned out to be 0.658 ± 0.1.
Then LHFYSLMEFQCD, with 0.695 ± 0.038; and LHHPPSPLRNPP, with 0.687 ± 0.059.
To LHHYPLVISGVS belongs 0.47 ± 0.12.
Then LHPPLPPLPFSA, with 0.679 ± 0.017; and LHVPPSPFPTPP, with 0.679 ± 0.049; and LIAGLNLASYGL, with 0.643 ± 0.1.
Take LIALSLPSSFVF: the protein stability index amounted to 0.594 ± 0.025.
Then LICVSTLAPSGQ, with 0.676 ± 0.0078; and LIFACIYFSGVV, with 0.644 ± 0.047; and LIGASFGLYPVS, with 0.693 ± 0.07.
To LIHCVSTFRCGE belongs 0.622 ± 0.026; to LIIMPTFDISAP, 0.7273 ± 0.0059; to LILEKHEMIGRR, 0.681 ± 0.026.
For LIPLSLPSCPLS, the protein stability index worked out at 0.69 ± 0.085.
Then LITCHSHKPQQI, with 0.704 ± 0.098; and LKRKRKYKKQGV, with 0.786 ± 0.01.
In the case of LKRRREGEPGKQ, the protein stability index is 0.625 ± 0.053.
Take LKRSYKKQRDNV: the protein stability index was determined as 0.698 ± 0.14.
To LLAFSPFLPLPP belongs 0.667 ± 0.046; to LLANLRSSIDIQ, 0.709 ± 0.18.
For LLCGVLGLAWVW, the protein stability index worked out at 0.553 ± 0.029.
Then LLCRGLGSVGRR, with 0.63 ± 0.18; and LLDLVVTAMCVL, with 0.587 ± 0.032; and LLESFCVSWCSW, with 0.617 ± 0.012.
To LLFDIYSPTCPS belongs 0.628 ± 0.02; to LLFLPRPPVCSR, 0.649 ± 0.11.
Then LLGRRSHTPDEP, with 0.723 ± 0.013.
LLHPFPPLCRHP had a protein stability index of 0.716 ± 0.018.
Then LLHPSPTPPCPP, with 0.696 ± 0.06.
To LLLLFLCSPSSL belongs 0.496 ± 0.041; to LLLLRPPLGASF, 0.711 ± 0.016.
Then LLLPPPLSASSS, with 0.633 ± 0.028; and LLLRGSGRSLAL, with 0.709 ± 0.0082; and LLLRLAASSSLS, with 0.703 ± 0.027.
LLLSQSSFCLTC came in with a protein stability index of 0.637 ± 0.046.
To LLNAGAMKGRLG belongs 0.6782 ± 0.0038; to LLNNNLNQRIYQ, 0.729 ± 0.019.
Then LLPALPPRCISF, with 0.7343 ± 0.005; and LLPLLPPAPPSP, with 0.687 ± 0.024; and LLPPAPLPPSLG, with 0.722 ± 0.016.
Then LLPPFPPPSLFS, with 0.667 ± 0.01.
With LLPPPPPPPFSD, the protein stability index was 0.653 ± 0.079.
To LLPPPPPPPSTP belongs 0.772 ± 0.0067; to LLPPSPFTPPPF, 0.742 ± 0.076.
Then LLPVFSYVPTFH, with 0.648 ± 0.047; and LLQFRATFPTTV, with 0.721 ± 0.036.

Values taken from the supplement of paper PMC10724198.
